From US10766960 (dated 2020)

T1: FcgRIIb (human, UniProt P31994)
T1 chain: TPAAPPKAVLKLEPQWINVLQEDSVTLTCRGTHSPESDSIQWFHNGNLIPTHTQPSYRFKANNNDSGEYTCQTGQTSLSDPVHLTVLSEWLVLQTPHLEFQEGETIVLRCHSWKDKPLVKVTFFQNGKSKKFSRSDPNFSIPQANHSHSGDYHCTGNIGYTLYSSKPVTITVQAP

T2: FcgRIa (human, UniProt P12314)
T2 chain: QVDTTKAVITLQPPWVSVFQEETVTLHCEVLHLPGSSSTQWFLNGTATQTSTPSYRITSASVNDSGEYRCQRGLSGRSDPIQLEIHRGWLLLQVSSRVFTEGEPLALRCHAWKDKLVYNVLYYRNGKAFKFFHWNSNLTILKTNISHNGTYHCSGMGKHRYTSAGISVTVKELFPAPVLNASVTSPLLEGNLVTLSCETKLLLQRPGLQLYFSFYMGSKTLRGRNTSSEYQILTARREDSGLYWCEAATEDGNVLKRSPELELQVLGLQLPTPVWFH

T3: FcgRIIa R (human, UniProt P12318)
T3 chain: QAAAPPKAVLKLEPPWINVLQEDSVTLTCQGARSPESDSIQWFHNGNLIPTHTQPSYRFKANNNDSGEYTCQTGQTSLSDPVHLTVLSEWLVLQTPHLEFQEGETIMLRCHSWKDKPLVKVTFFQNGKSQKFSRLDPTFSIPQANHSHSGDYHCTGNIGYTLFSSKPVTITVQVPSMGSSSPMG

T4: FcgRIIa H (human, UniProt P12318)
T4 chain: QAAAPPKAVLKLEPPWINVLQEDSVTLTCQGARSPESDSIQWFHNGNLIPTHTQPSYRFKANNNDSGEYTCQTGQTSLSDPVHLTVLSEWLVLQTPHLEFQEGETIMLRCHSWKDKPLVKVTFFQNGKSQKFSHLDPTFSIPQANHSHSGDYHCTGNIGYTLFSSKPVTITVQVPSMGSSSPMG


Legend:
Assay in all cases: SPR
[1] = target: FcgRIIIa F (human, UniProt P08637)
[2] = target: T1, FcgRIIb
[3] = target: FcgRIIIa V (human, UniProt P08637)
[4] = target: T2, FcgRIa
[5] = target: T3, FcgRIIa R
[6] = target: T4, FcgRIIa H

FcgRIIIa F, sequence (P08637 17-208): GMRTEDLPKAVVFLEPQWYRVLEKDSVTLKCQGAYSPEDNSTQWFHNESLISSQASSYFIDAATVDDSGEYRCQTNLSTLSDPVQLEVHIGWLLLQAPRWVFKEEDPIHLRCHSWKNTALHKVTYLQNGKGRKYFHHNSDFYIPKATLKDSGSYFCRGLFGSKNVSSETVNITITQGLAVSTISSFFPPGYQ
FcgRIIIa V, sequence (P08637 17-208 F176V): as the sequence (P08637 17-208) above, with F160V counted along it

| Binder | Kd [1] [nM] | Kd [2] [nM] | Kd [3] [nM] | Kd [4] [nM] | Kd [5] [nM] | Kd [6] [nM] |
| --- | --- | --- | --- | --- | --- | --- |
| H240-Kn226/H240-Hl210/L73-k0 (antibody) chain 1: QDQLVQSGAEVKKPGASVKVSCKASGFNIKDTYIQWVRQAPGQGLEWMGRIDPLRKQTKYREKFEGRVTITADTSTNTAYMELSSLRSEDTAVYYCVRSGREFDYWGQGTLVTVSSASTKGPSVFPLAPSSKSTSGGTAALGCLVKDYFPEPVTVSWNSGALTSGVHTFPAVLQSSGLYSLSSVVTVPSSSLGTQTYICNVNHKPSNTKVDKKVEPKSCDKTHTCPPCPAPEFQWGPIVFLFPPKPKDTLMISRTPEVTCVVVDVSDEEPEVKFNWYVDGVEVHNAKTKPREEQYNATYRVVSVLTVLHQDWLNGKEYKCKVSNKALPAPIEKTISKAKGQPREPQVCTLPPSRDELTKNQVSLWCLVKGFYPSDIAVEWESNGQPENNYKTTPPVLDSDGSFFLYSKLTVDKSRWQQGNVFSCSVMHEALHNHYTQKSLSLSP chain 2: QDQLVQSGAEVKKPGASVKVSCKASGFNIKDTYIQWVRQAPGQGLEWMGRIDPLRKQTKYREKFEGRVTITADTSTNTAYMELSSLRSEDTAVYYCVRSGREFDYWGQGTLVTVSSASTKGPSVFPLAPSSKSTSGGTAALGCLVKDYFPEPVTVSWNSGALTSGVHTFPAVLQSSGLYSLSSVVTVPSSSLGTQTYICNVNHKPSNTKVDKKVEPKSCDKTHTCPPCPAPELLGGPSVFLFPPKPKDTLMISRTPEVTCVVVDVSHEEPEVKFNWYVDGVEVHNAKTKPREEQYNSTYRVVSVLTVLHQDWLNGKEYKCKVSNDALPAPIEETISKAKGQPREPQVYTLPPSRCELTKNQVSLSCAVKGFYPSDIAVEWESNGQPENNYKTTPPVLDSDGSFFLVSKLTVDKSRWQQGNVFSCSVMHEALHNHYTQKSLSLSP chain 3: DIQMTQSPSSLSASVGDRVTITCRASQDIHKYIAWYQQKPGQAPRLLIQYTSTLQPGVPSRFSGSGSGTDYTFTISSLQPEDIATYYCLQYEQLRTFGGGTKVEIKRTVAAPSVFIFPPSDEQLKSGTASVVCLLNNFYPREAKVQWKVDNALQSGNSQESVTEQDSKDSTYSLSSTLTLSKADYEKHKVYACEVTHQGLSSPVTKSFNRGEC | 3.7 | 3100 | 0.85 | 0.11 | 310 | 120 |
| H240-Kn233/H240-Hl068/L73-k0 (antibody) chain 1: QDQLVQSGAEVKKPGASVKVSCKASGFNIKDTYIQWVRQAPGQGLEWMGRIDPLRKQTKYREKFEGRVTITADTSTNTAYMELSSLRSEDTAVYYCVRSGREFDYWGQGTLVTVSSASTKGPSVFPLAPSSKSTSGGTAALGCLVKDYFPEPVTVSWNSGALTSGVHTFPAVLQSSGLYSLSSVVTVPSSSLGTQTYICNVNHKPSNTKVDKKVEPKSCDKTHTCPPCPAPEEYWGPIVFLFPPKPKDTLMISRTPEVTCVVVDVSDEDPEVKFNWYVDGVEVHNAKTKPREEQYNATYRVVSVLTVLHQDWLNGKEYKCKVSNKDLPAPIEKTISKAKGQPREPQVCTLPPSRDELTKNQVSLWCLVKGFYPSDIAVEWESNGQPENNYKTTPPVLDSDGSFFLYSKLTVDKSRWQQGNVFSCSVMHEALHNHYTQKSLSLSP chain 2: QDQLVQSGAEVKKPGASVKVSCKASGFNIKDTYIQWVRQAPGQGLEWMGRIDPLRKQTKYREKFEGRVTITADTSTNTAYMELSSLRSEDTAVYYCVRSGREFDYWGQGTLVTVSSASTKGPSVFPLAPSSKSTSGGTAALGCLVKDYFPEPVTVSWNSGALTSGVHTFPAVLQSSGLYSLSSVVTVPSSSLGTQTYICNVNHKPSNTKVDKKVEPKSCDKTHTCPPCPAPELLGGPSVFLFPPKPKDTLMISRTPEVTCVVVDVSHEEPEVKFNWYVDGVEVHNAKTKPREEQYNSTYRVVSVLTVLHQDWLNGKEYKCKVSNDALPKPIEETISKAKGQPREPQVYTLPPSRCELTKNQVSLSCAVKGFYPSDIAVEWESNGQPENNYKTTPPVLDSDGSFFLVSKLTVDKSRWQQGNVFSCSVMHEALHNHYTQKSLSLSP chain 3: DIQMTQSPSSLSASVGDRVTITCRASQDIHKYIAWYQQKPGQAPRLLIQYTSTLQPGVPSRFSGSGSGTDYTFTISSLQPEDIATYYCLQYEQLRTFGGGTKVEIKRTVAAPSVFIFPPSDEQLKSGTASVVCLLNNFYPREAKVQWKVDNALQSGNSQESVTEQDSKDSTYSLSSTLTLSKADYEKHKVYACEVTHQGLSSPVTKSFNRGEC | 2.5 | 210 | 0.75 | 0.18 | 21 | 66 |
